The Kd is the constant that tells how readily two partners part at equilibrium.

Consider eleven molecules from patent publication US20230295284A1 (published 2023).

To fix the notation:
B1: LMJ2.4C (VHH)
VHH: QVQLVEAGGGLVQAGGSLRLSCAASGSTFSHSAGGWYRQAPEKQRELVAGIRSDGNINYADSVKDRFTISRDNASNTMYLQMNNLKPEDTAVYVCNIRGSYGNTYYSRWGQGIQVTVSS
modifications: sortase-tagged with biotin in the Western blots ; Purified by a his-tag for BLI and sortase-tagged with biotin in the Western blots. The tag letters are not stated for the free nanobody, so they are left out.
B2: NJB2 (parental nanobody) (VHH)
VHH: QVQLVETGGGLVQAGGSLRLSCAASGSTFSHNAGGWYRQAPEKQRELVAGISSDGNINYADSVKDRFTISRDNASNTMYLQMNNLKPEDTAVYVCNIRGSYGNTYYSRWGQGTQVTVSS
modifications: Purified by a his-tag. Its letters and position are not stated for the free nanobody, so it is left out.
B3: LMJ2.5C (VHH)
VHH: QVQLVETGGGLVQAGGSLRLSCAASGSTFSHSAGGWYRQAPEKQRELVAGVRSDGNINYADSVKDRFTISRDNASNTMYLQMNNLKPEDTAVYVCNIRGSYGNTYYSRWGQGIQVTVSS
modifications: sortase-tagged with biotin in the Western blots ; Purified by a his-tag for BLI and sortase-tagged with biotin in the Western blots. The tag letters are not stated for the free nanobody, so they are left out.
B4: LMJ2.5J (VHH)
VHH: QVQLVETRGGLVQAGGSLRLSCAVSGSTFSHSAGGWYRQAPEKQRELVAGIGSAGNINYADSVKDRFTISRDNASNTMYLQMNNLKPEDTAVYVCNIRGSYGNTYYSRWGQGTQVTVSS
modifications: sortase-tagged with biotin in the Western blots ; Western blots used the nanobody sortase-tagged with biotin at a terminus. The BLI material was his-tag purified. Tag letters are not stated for the stand-alone nanobody and are left out.
B5: LMJ1.3J (VHH)
VHH: QVQLVGTGGGLVQAGGSLRLSCAASGSTFSHSAGGWYRQAPEKQRELVAGISSAGNINYADSVKDRFTISRDNASNTMYLQMNNLKPEDTAVYVCNIRGSYGNTYYSRWGQGTQVTVSS
modifications: sortase-tagged with biotin in the Western blots ; Purified by a his-tag for BLI and sortase-tagged with biotin in the Western blots. The tag letters are not stated for the free nanobody, so they are left out.
B6: LMJ2.5G (VHH)
VHH: QVQLVETEGGLVQAGGSLRLSCAASGSTFSHSAGGWYRQAPEKQRELVAGIRSDGNINYADSVKDRFTISRDNASNTMYLQMNNLKPEDTAVYVCNIRGSYGNTYYSRWGQGTQVTVSS
modifications: sortase-tagged with biotin in the Western blots ; Western blots used the nanobody sortase-tagged with biotin at a terminus. The BLI material was his-tag purified. Tag letters are not stated for the stand-alone nanobody and are left out.
B7: LMJ2.6A (VHH)
VHH: RVQLVETGGGLVQAGGSLRLSCAVSGRTFSHSAGGWYRQAPEKQRELVAGIRSDGNINYADSVKDRFTISRDNASNTMYLQMNNLKPGDTAVYVCNIRGSYGNTYYSRWGQGTQVTVSS
modifications: sortase-tagged with biotin in the Western blots ; Purified by a his-tag for BLI and sortase-tagged with biotin in the Western blots. The tag letters are not stated for the free nanobody, so they are left out.
B8: LMJ2.5I (VHH)
VHH: RVQLVETGGGLVQAGGSLRLSCAVSGSTFSHSAGGWYRQAPEKQRELVAGIRSDGNINYADSVKDRFTISRDNASNTMYLQMNNLKPEDTAVYVCNIRGSYGNTYYSRWGQGAQVTVSS
modifications: sortase-tagged with biotin in the Western blots ; Purified by a his-tag for BLI and sortase-tagged with biotin in the Western blots. The tag letters are not stated for the free nanobody, so they are left out.
B9: LMJ1.2C (VHH)
VHH: QVQLVETGGGLVQAGGSLRLSCAASGSTFSHSAGGWYRQAPEKQRELVAGIRSDGNINYADSVKDRFTISRDNASNTMYLQMNNLKPEDTAVYVCNIRGSYGNTYYSRWGQGTQVTVSS
modifications: sortase-tagged with biotin in the Western blots ; Purified by a his-tag for BLI and sortase-tagged with biotin in the Western blots. The tag letters are not stated for the free nanobody, so they are left out.
B10: LMJ2.5H (VHH)
VHH: QVQLVETGGGLVQAGGSLRLSCAVSGSTFSHSAGGWYRQAPEKQRELVAGIRSDGNINYADSVKDRFTISRDNASNTMYLQMNNLKPEDTAVYVCNIRGSYGNTYYSRWGQGTQVTVSS
modifications: sortase-tagged with biotin in the Western blots ; Western blots used the nanobody sortase-tagged with biotin at a terminus. The BLI material was his-tag purified. Tag letters are not stated for the stand-alone nanobody and are left out.
B11: LMJ1.2G (VHH)
VHH: QVQLVETGGGLVQAGGSLRLSCAASGSTFSHSAGGWYRQAPEKQRELVAGIGSDGNINYADSVKDRFTISRDNASNTMYLQMNNLKPEDTAVYVCNIRGSYGNTYYSRWGQGTQVTVSS
modifications: sortase-tagged with biotin in the Western blots ; Purified by a his-tag for BLI and sortase-tagged with biotin in the Western blots. The tag letters are not stated for the free nanobody, so they are left out.

For the assay, the target named is FN-EIIIB. Nature of the assay: BLI. Background: BLI is a label-free optical method that tracks binding on a fibre tip over time.
Sequence of FN-EIIIB (chain, as listed by the source): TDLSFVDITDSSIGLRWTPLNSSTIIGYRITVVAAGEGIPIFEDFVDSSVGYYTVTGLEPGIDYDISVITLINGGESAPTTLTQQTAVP
The molecule B1 returned a dissociation constant Kd of 0.0626 nM. In the case of B2 it was 1.82 nM; in that of B3, 0.0785 nM; in that of B4, 0.0622 nM. On to B5, for which binding was characterised by a dissociation constant (Kd) of 0.402 nM. The molecule B6 registered a Kd of 0.166 nM.

In turn, B7 returned a Kd of 0.344 nM. In the case of B8, the Kd came out at 0.0254 nM. In the case of B9, the dissociation constant Kd amounted to 0.3 nM. Turning to B10, binding was put at a Kd of 0.227 nM. Next, B11: 0.973 nM.
